From patent US20110044986A1 (Amgen, published 2011)

Key:
human Aβ40 fibrils [1] = target: T1, human Aβ40 fibrils (human); assay: BIAcore, fibrils immobilized, antibody injected
T1 construct: Fibrillar aggregate of the 40-residue peptide prepared in vitro; also called Fibrillar Aβ40; Aβ40 amyloid fibrils
Protocol: (§1) Preparation of Biacore Chip Surfaces: Immobilization of Proteins to a BIAcore sensor chip (CM5) was performed according to manufacturer's instructions. Briefly, carboxyl groups on the sensor chip surfaces were activated by injecting 60 μL of a mixture containing 0.2 M N-ethyl-N′-(dimethylaminopropyl) carbodiimide (EDC) and 0.05 M N-hydroxysuccinimide (NHS). Specific surfaces were obtained by injecting rProtein G (Pierce), goat anti-mouse Fc (Jackson Immuno Research Lab) or Aβ aggregates diluted in 10 mM acetate, pH 4.0 at concentrations between 5 and 20 μg/mL. Excess reactive groups on the surfaces were deactivated by injecting 60 μL of 1 M ethanolamine. […] A blank, mock-coupled reference surface was also prepared on the sensor chips for background subtraction.
(§2) Kinetic analysis of antibodies binding to immobilized Aβ fibrils: Avidity measurements to Aβ fibrils were made by immobilizing amyloid fibrils on the sensor chip surface followed by injection of antibody solutions over the surface, and injection of antibody solutions over a blank surface for background subtraction. Antibodies were diluted in PBS+0.005% P-20+0.1 mg/mL BSA at concentrations varying from 100 nM to 0.2 nM.

human Aβ42 fibrils [2] = target: T2, human Aβ42 fibrils (human); assay: BIAcore, fibrils immobilized, antibody injected
T2 construct: Fibrillar aggregate of the 42-residue peptide prepared in vitro; also called Fibrillar Aβ42; Aβ42 amyloid fibrils
T2 sequence (peptide, as listed by the source): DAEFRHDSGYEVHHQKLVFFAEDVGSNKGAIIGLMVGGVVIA
Protocol: as §1, §2

human Aβ40 monomer [3] = target: T3, human Aβ40 monomer (human); assay: ELISA, monomer coated on plate, europium TRF
T3 construct: also called soluble Aβ40
T3 sequence (peptide, as listed by the source): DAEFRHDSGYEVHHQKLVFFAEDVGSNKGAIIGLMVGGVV
Protocol: (§3) The same techniques were used for the coating of the microtiter plate for monomer ELISA. The fibrils Aβ monomer were diluted to 2.5 μg/ml in Coating buffer and mixed thoroughly. The solution was aliquoted into the wells of a microtiter plate [Immulon-2; VWR; Cat.# 62404-972] at 100 μl per well. The plate was sealed and incubated overnight at 4° C. The plate was washed 5-10× to remove Aβ coating solution prior to starting the assay.
(§4) The wells were blocked with 200 μl of blocking solution and incubated for ≧1 hour at room temperature (RT) with shaking. The blocking solution was flicked out and gently dried on a paper towel. 100 μl of primary antibody diluted in PBS containing 10% blocking solution was added to each well and the plate was incubated at RT for 1 hour with shaking. The plate was washed with 5-10× in TBS, pH 7.5+0.05% Tween 20. 100 μl of secondary antibodies (each diluted 1-2,000-fold in PBS) was added to each well and the plate was incubate at RT for 1 hour with shaking. The plate was washed with 5-10× in TBS, pH 7.5+0.05% Tween 20. 100 μl Streptavidin-Europium reagent (1-1,000-fold dilution) was added (100 μL/well) and the plate was incubated at room temperature for 45 minutes with shaking. The plate was washed 5-10× in TBS, pH 7.5+0.05% Tween 20. 120 μl Enhance Solution was added and the plate was incubated at room temperature for 15-30 minutes with shaking. The plate was read on a Victor TRF plate reader (Europium program).

human Aβ42 monomer [4] = target: T4, human Aβ42 monomer (human); assay: ELISA, monomer coated on plate, europium TRF
T4 construct: also called soluble Aβ42; monomeric Aβ42
Protocol: as §3, §4

human Aβ40 fibrils [5] = target: T1, human Aβ40 fibrils; assay: ELISA, fibrils dried on plate, europium TRF
Protocol: (§5) The fibrils (Aβ or collagen) were diluted to 10 μg/ml in water and mixed thoroughly. The solution was aliquoted into the wells of a microtiter plate (Immulon-2; VWR; Cat # 62404-972) at 50 μl per well (resulting in 0.5 μg fibrils/well final). The plate was dried overnight by being placed uncovered in a 37° C. incubator.
as §4

human Aβ42 fibrils [6] = target: T2, human Aβ42 fibrils; assay: ELISA, fibrils dried on plate, europium TRF
Protocol: as §5, §4

human Aβ40 fibrils [7] = target: T1, human Aβ40 fibrils; assay: BIAcore, fibrils immobilized, antibody injected (avidity)
Protocol: as §1, §2

human Aβ42 fibrils [8] = target: T2, human Aβ42 fibrils; assay: as above
Protocol: as §1, §2

[9] = target: amyloid plaques in unfixed Tg2576 mouse brain sections (human, UniProt P05067 672-713, limits assumed); assay: cell-based or functional assay
Aβ42 oligomers = target: T5, Aβ42 oligomers (human); assay: immunoprecipitation / Western blot
T5 construct: Soluble oligomers prepared from Aβ42 peptide in Ham's F-12; dimer, trimer and tetramer were seen on the blot; also called soluble, oligomeric species of Aβ42; Aβ42 dimer, trimer, and tetramer

human Aβ40 monomer [10] = target: T3, human Aβ40 monomer; assay: BIAcore, antibody captured on protein G, Aβ monomer injected
Protocol: as §1
(§6) Kinetic analysis of Aβ monomers binding to protein G captured antibodies: The kinetic analysis of the interaction between Aβ monomers and antibodies was performed as follows: Antibodies to be tested were diluted in PBS+0.005% P-20+0.1 mg/mL BSA and injected over the immobilized protein G Fc surface. Aβ monomers were diluted in PBS+0.005% P-20+0.1 mg/mL BSA from 1000 nM to 2 nM, and each concentration was injected over the captured antibody surfaces.

human Aβ42 monomer [11] = target: T4, human Aβ42 monomer; assay: as above
Protocol: as §1, §6

Row | Binder | koff (human Aβ40 fibrils [1]) [s⁻¹] | koff (human Aβ42 fibrils [2]) [s⁻¹] | EC50 (human Aβ40 monomer [3]) [nM] | EC50 (human Aβ42 monomer [4]) [nM] | EC50 (human Aβ40 fibrils [5]) [nM] | EC50 (human Aβ42 fibrils [6]) [nM] | Kd (human Aβ40 fibrils [7]) [nM] | koff (human Aβ40 fibrils [7]) [s⁻¹] | kon (human Aβ40 fibrils [7]) [M⁻¹ s⁻¹] | Kd (human Aβ42 fibrils [8]) [nM] | koff (human Aβ42 fibrils [8]) [s⁻¹] | kon (human Aβ42 fibrils [8]) [M⁻¹ s⁻¹] | Kd (human Aβ40 monomer [10]) [nM] | Kd (human Aβ42 monomer [11]) [nM] | further results
1 | antibody 1.7 (antibody, V domains shown, Human antibody from a Xenomouse hybridoma (IgG1 or IgG4 strains); also called Ab 1.7; human antibody 1.7) VH: QVTLKESGPVLVKPTETLTLTCTVSGFSLSNARMSVSWIRQPPGKALEWLAHIFSNDEKSYSTSLKSRLTISKDTSKSQVVLTMTNMDPVDTATYYCARIRGTVGFDYWGQGTLVTVSS VL: not shown |  |  | 0.615 | 0.052 | 0.09 | 0.071 | 0.1 | 0.00042 | 3.8e+06 | 2.9 | 0.0005 | 170000 | > 200 | > 20 | EC50 of ex vivo phagocytosis [9]: 2 µg/mL; binding result (Aβ42 oligomers): binds
2 | antibody 1.1 (antibody, human IgG1, kappa, V domains shown, also called Ab 1.1; human antibody 1.1) VH: QVTLKESGPVLVKPTETLTLTCTVSGFSLSNARMSVSWIRQPPGKALEWLAHIFSNDEKSYSTSLKSRLTISKDTSKSQVVLTMTNMDPVDTATYYCARIRGTVGYDYWGQGTLVTVSS VL: not shown |  |  | 0.054 | 0.045 | 0.133 | 0.082 | 0.02 | 8.1e-05 | 4.2e+06 | 0.8 | 0.00016 | 200000 | 117 | 16 | koff (human Aβ40 monomer [10]): 0.015 s⁻¹; kon (human Aβ40 monomer [10]): 130000 M⁻¹ s⁻¹; koff (human Aβ42 monomer [11]): 0.0039 s⁻¹; kon (human Aβ42 monomer [11]): 240000 M⁻¹ s⁻¹
3 | antibody 1.2 (antibody, human IgG1, kappa, V domains shown, also called Ab 1.2; human antibody 1.2) VH: QVTLKESGPVLLKPTETLTLTCTVSGFSLSNARMGVSWIRQPPGKALEWLAHIFSNDEKSYITSLKSRLTISKDTSKSQVVLTMTNMDPVDTATYYCARIPLRSPGAFDIWGQGTMVTVSS VL: DIVMTQTPLSSPVTLGQPASISCRSSQSLVHSDGNTYLNWLQQRPGQPPRLLIYKISNRFSGVPDRFTGSGAGTDFTLKISRVEAEDVGVYTCMQVTQFPLTFGQGTRLEIKR |  |  | 0.689 | 0.056 | 0.115 | 0.086 | 0.06 | 0.00017 | 2.9e+06 | 1.7 | 0.00019 | 170000 | > 200 | 14 | binding result (Aβ42 oligomers): binds; koff (human Aβ42 monomer [11]): 0.0011 s⁻¹; kon (human Aβ42 monomer [11]): 78000 M⁻¹ s⁻¹
4 | antibody 1.9 (antibody, human IgG1, kappa, V domains shown, also called Ab 1.9; human antibody 1.9) VH: QVTLKESGPVLVKPTETLTLTCTVSGFSLSNARMGVSWIRQPPGKALEWLAHIFSNDEKSYSTSLKSRLTISKDTFKSQVVLTMTNMDPVDTATYYCARIPLRSPGAFDIWGQGTMVTVSS VL: EIVMTQTPLSSPVTLGQPASISCRSSQSLVHSDRNTYLSWLQQRPGQPPRLLIYKISNRFSGVPDRFSGSGAGTDFTLKISRVEAEDVGVYYCMQTTQLPLTFGQGARLEIKR |  |  | 0.042 | 0.037 | 0.195 | 0.096 | 0.03 | 0.00017 | 5.3e+06 | 1.8 | 0.00019 | 110000 | > 200 | 47 | koff (human Aβ42 monomer [11]): 0.0029 s⁻¹; kon (human Aβ42 monomer [11]): 61000 M⁻¹ s⁻¹
5 | antibody 1.15 (antibody, V domains shown, Human anti-Aβ antibody) VH: not shown VL: DVVMTQSPFSLPVTLGQPASISCRSSQSLVYSDGNTSLNWFQQRPGQSPRRLIYKVSKWDSGVPDRFSGSGSGTDFTLKISRVEAEDVGVYYCMQGTHWPRGFTFGPGTKVDIK | 0.00096 | 0.0011 |  |  |  |  |  |  |  |  |  |  |  |  | 
6 | antibody 1.14 (antibody, V domains shown, Human anti-Aβ antibody) VH: EVQLVESGGGLVQPGGSLRLSCAASGFTFSSYSMNWVRQAPGKGLEWVSYISRSSSAIYYADSVKGRFTISRDNAKNSLYLQMNSLRDEDTAVYYCARETTVTTRFYYYYYGVDVWGQGTTVTVSS VL: DIQMTQSPSSVSASVGDRVTITCRASQGISSWLAWFQQKPGKAPKLLIYAASSLQSGVPSRFSGSGSGTDFTLTISSLQPEDFATYYCQQANSFPRTFGQGTKVEIK | 0.0013 | 0.00087 |  |  |  |  |  |  |  |  |  |  |  |  | 

More lines, main results first:

Row | koff (human Aβ40 fibrils [1]) [s⁻¹] | koff (human Aβ42 fibrils [2]) [s⁻¹] | EC50 (human Aβ40 monomer [3]) [nM] | EC50 (human Aβ42 monomer [4]) [nM] | EC50 (human Aβ40 fibrils [5]) [nM] | EC50 (human Aβ42 fibrils [6]) [nM] | Kd (human Aβ40 fibrils [7]) [nM] | koff (human Aβ40 fibrils [7]) [s⁻¹] | kon (human Aβ40 fibrils [7]) [M⁻¹ s⁻¹] | Kd (human Aβ42 fibrils [8]) [nM] | koff (human Aβ42 fibrils [8]) [s⁻¹] | kon (human Aβ42 fibrils [8]) [M⁻¹ s⁻¹] | Kd (human Aβ40 monomer [10]) [nM] | Kd (human Aβ42 monomer [11]) [nM] | Binder | further results
7 | 0.00014 | 0.00029 |  |  |  |  |  |  |  |  |  |  |  |  | antibody 7.2 (antibody, V domains shown, Human anti-Aβ antibody; also called Ab 7.2) VH: QVQLVESGGGVVQPGRSLRLSCAASGFTFSSYGMHWVRQAPGKGLEWVAVIWYDGSNKYYADSVKGRFTISRDISKNTLYLQMNSLRAEDTAVYYCARSGPPLYSGIYYYYGMDVWGQGTTVTVSS VL: SSELTQDPAVSVALGQTVRITCQGDSLRAYYAHWYQQKPGQAPVLVIYGKNNRPSGIPDRFSGSNSGNTASLTITGAQAEDEADYYCNSRDSSGNHVVFGGGTKLTVL | 
8 | 0.005 | 0.0021 |  |  |  |  |  |  |  |  |  |  |  |  | antibody 6.27 (antibody, V domains shown, Human anti-Aβ antibody; also called Ab 6.27) VH: QVQLQESGPGLVKPSKTLSLTCTVSGGSISSYYWSWIRQPAGKGLEWIGRIYTSGSTNLNPSLKSRVTMSIDTSKSQFSLKLSSVTAADTAVYYCARLELRNYYYGMDVWGQGTTVTVSS VL: not shown | 
9 | 0.0008 | 0.00049 |  |  |  |  |  |  |  |  |  |  |  |  | antibody 7.11 (antibody, V domains shown, Human anti-Aβ antibody; also called Ab 7.11) VH: QLQLQESGPGLVKPSETLSLTCTVSGGSISSSRYYWGWIRQPPGKGLEWIGSISYRGNTYYYPSLKSRVTISVDTSKNQFSLKLNSVTAADTAVYYCARRTYSSGWSYFDYWGQGTLVTVSS VL: SYELTQPYSMSVATAQMARITCGGNNIGSKAVHWYQQKPGQDPVLVIYSDSNRPSGIPERFSGSNPGNTATLTISRIEAGDEANYYCQVWDSSSDHWVFGGGTKLTVL | 
10 | 8.2e-05 | 0.00021 |  |  |  |  |  |  |  |  |  |  |  |  | antibody 7.28 (antibody, V domains shown, Human anti-Aβ antibody; also called Ab 7.28) VH: not shown VL: QSVLTQPPSVSAAPGQKVTISCSGSSSNIGNNYVFWYQQLPGTAPKLLIYDNNKRPSGIPDRFSGSKSGTSATLGITGLQTGDEADYYCGTWDSSLSAGVFGGGTKVTAL | 
11 | 0.004 | 0.0026 |  |  |  |  |  |  |  |  |  |  |  |  | antibody 6.18 (antibody, V domains shown, Human anti-Aβ antibody; also called Ab 6.18) VH: EVQLVESGGGLVQPGGSLRLSCAASGFTFSSYSMNWVRQAPGKGLEWLSYISSRSSTIYYADSVKGRFTISRDNAKNSLYLQMNSLRDEDTAVYYCARERTGTTRYYYYYYGMDVWGQGTTVTVSS VL: DIQMTQSPSSVSASVGDRVTITCRASQGISSWLAWSQQKPGKAPKLLIYAASSLQSGVPSRFSGSGSGTDFTLTISSLQPEDFATYYCQQANSFPRTFGQGTKVEIK | 
